Experimental data reported in PMC5338832 (PLoS Pathogens, 2017).
Substitutions are numbered along the chain they refer to.

T1: T117v2 epitope-scaffold (synthetic construct (designed scaffold …))
T1 construct: also called T117v2 scaffold; scaffolded MPER construct; source: expressed and purified as previously described [35]
T1 chain: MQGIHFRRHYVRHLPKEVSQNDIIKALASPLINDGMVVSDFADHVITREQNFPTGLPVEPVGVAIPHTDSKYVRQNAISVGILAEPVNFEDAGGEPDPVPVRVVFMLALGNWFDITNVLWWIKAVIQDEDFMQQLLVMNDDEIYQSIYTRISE

B1: 10E8 IgG mutant 3 (antibody, V domains shown)
VH: EVQLVESGGGLVKPGGSLRLSCSASGFDFDNAWMTWVRQPPGKGLEWVGRITGPGEGWSVDYAAPVEGRFTISRLNSINFLYLEMNNLRMEDSGLYFCARTGKYYDFWSGYPPGEEYFQDWGRGTLVTVSS
VL: SYELTQETGVSVALGDTVTITCEGDSLESHYASWYQKKPGQAPILLFYGDDNRPSGVPDRFSGDADGNEASLTIDGAQAEDDAEYYCSSRDKSGSRLSVFGGGTKLTVL
notes: IgG; also called 10E8 mut 3; copies: 2 + 2
B2: 10E8 IgG mutant 1 (antibody, V domains shown)
VH: B1 VH
VL: B1 VL with D16Q, E23Q, E28R, D50K, D51N, D64S, D66S, E69T, D75S
notes: also called 10E8 mut 1; copies: 2 + 2
B3: 10E8 IgG mutant 2 (antibody, V domains shown)
VH: B1 VH
VL: B1 VL with D50K, D51N, D64S, D66S, D75S
notes: IgG; also called 10E8 mut 2; copies: 2 + 2
B4: 10E8 IgG mutant 5 (antibody, V domains shown)
VH: B1 VH
VL: B1 VL with D16R, E23R, E28A, Y31A, D50K, D51N, D64S, D66S, E69R, D75S
notes: IgG; also called 10E8 mut 5; copies: 2 + 2

Experiments:
[1] = target: T1, T117v2 epitope-scaffold; test: SPR; ProteOn XPR36, GLC chip with amine-coupled capture antibody (Human Antibody Capture Kit) for ligand capture; 1x HBS-EP+ pH 7.4 with 1 mg/ml BSA; Langmuir model; Table 1 heads the IgGs as 'Analyte'; settings: both partners purified
[2] = target: T1, T117v2 epitope-scaffold; test: SPR; settings: both partners purified

Row | Binder | Kd [1] | koff [1] | kon [1] | Kd [2] | koff [2] | kon [2]
1 | B1 | 379 pM | 0.000211 s⁻¹ | 559000 M⁻¹ s⁻¹ | – | – | –
2 | B2 | 11.2 pM | 4e-05 s⁻¹ | 3.57e+06 M⁻¹ s⁻¹ | – | – | –
3 | B3 | – | – | – | 16.4 pM | 4.6e-05 s⁻¹ | 2.8e+06 M⁻¹ s⁻¹
4 | B4 | 123 pM | 0.00016 s⁻¹ | 1.3e+06 M⁻¹ s⁻¹ | – | – | –
